Data taken from the DeepSol protein solubility set.

Assay: soluble on expression in E. coli; label from the status in PepcDB or PDB records

Soluble on expression in E. coli, soluble:
MTDFSVWETAPFGATVDHILQRYHNVHRAQFEELVPLAQKVAQVHADTFPAEIAELLAYMQNELLMHMMKEERMLFPMINQGVGRGAAMPIGVMMHEHEEHDRAIARLKELTDNFQPPEGACGSWTRLYALAKEMVEDLNDHIHLENDILFARVLDS
MEIPTAKPQKEHEFLNRIVGDWIMTASSGHEAYDPNDPEQVFIEKVRSIGGLWIIGEGTGKMPDGTSMTAVITVGFDPAKGNFVGTWVGSMMTNLWVYKGWLEEDGKTLTLEAEGPAFDGSGDTATYHDVLVLHDDNHRSFSGSVKQPDGTFKTFMTSEFRRKT
MAKINELLRESTTTNSNSIGRPNLVALTRATTKLIYSDIVATQRTNQPVAAFYGIKYLNPDNEFTFKTGATYAGEAGYVDREQITELTEESKLTLNKGDLFKYNNIVYKVLEDTPFATIEESDLELALQIAIVLLKVRLFSDAASTSKFESSDSEIADARFQINKWQTAVKSRKLKTGITVELAQDLEANGFDAPNFLEDLLATEMADEINKDILQSLITVSKRYKVTGITDSGFIDLSYASAPEAGRSLYRMVCEMVSHIQKESTYTATFCVASARAAAILAASGWLKHKPEDDKYLSQNAYGFLANGLPLYCDTNSPLDYVIVGVVENIGEKEIVGSIFYAPYTEGLDLDDPEHVGAFKVVVDPESLQPSIGLLVRYALSANPYTVAKDEKEARIIDGGDMDKMAGRSDLSVLLGVKLPKIIIDE
MGSDKIHHHHHHMLAKRIIACLDVKDGRVVKGTNFENLRDSGDPVELGKFYSEIGIDELVFLDITASVEKRKTMLELVEKVAEQIDIPFTVGGGIHDFETASELILRGADKVSINTAAVENPSLITQIAQTFGSQAVVVAIDAKRVDGEFMVFTYSGKKNTGILLRDWVVEVEKRGAGEILLTSIDRDGTKSGYDTEMIRFVRPLTTLPIIASGGAGKMEHFLEAFLAGADAALAASVFHFREIDVRELKEYLKKHGVNVRLEGL
MSEFWLISAPGDKENLQALERMNNVTSKSNLSHNTKFAIPDFKVGTLDSLVGLSDELGKLDTFAESLIKRMAQSVVEVMEDSKGKAHETLLANGVDLTSFVTHFEWDMAKYPAKQPLVSVVDTLAKQLAQIETDLKSRTAAYSVLKANLENLEKRSTGNLFTRTLSDIVSKEDFVLDSEYLITLLVIVPKSSFAQWQKTYESLSDMVVPRSTKLIAEDNEGGLFTVTLFRKVIEDFKVKAKENKFIVREFYYDEKEIKREREEMTRLLSDKKQQYPTSCVALKKGSATYRDHKVKVAPLGNPARPAAGQTDRDRESEGEGEGPLLRWLKVNFSEAFIAWIHIKALRVFVESVLRYGLPVNFQAVLLQPHKKSATKRLREVLNSVFRHLDEVAAASILDASVEIPGLQLSNQDYFPYVYFHIDLSLLD
SAVFADLDLRAGSDLKALRGLVETAAHLGYSVVAINHIVDFKEKKQEIEKPVAVSELFTTLPIVQGKSRPIKILTRLTIIVSDPSHCNVLRATSSRARLYDVVAVFPKTEKLFHIACTHLDVDLVCITVTEKLPFYFKRPPINVAIDRGLAFELVYSPAIKDSTMRRYTISSALNLMQICKGKNVIISSAAERPLEIRGPYDVANLGLLFGLSESDAKAAVSTNCRAALLHGETRKTAFGIISTVKKPRPSEGDEDCLPASKKAKCEG
GMDMKTKLQTIIGMFQITAWDETSYFESDNGAKLTQAVITQSYQGVLQGHSEIRYLMSYQDNANATFVGFEHFTGSLGDKKGSFILQHKGLFAAGVASSEFELVERSATGDFVHLVGKGHFVSTENGQANYQITLQDS
HLVCPMSKSPYVDPHKSGHEIWEEFSMSFTPAVKEVVEFAKRIPGFRDLSQHDQVNLLKAGTFEVLMVRFASLFDAKERTVTFLSGKKYSVDDLHSMGAGDLLNSMFEFSEKLNALQLSDEEMSLFTAVVLVSADRSGIENVNSVEALQETLIRALRTLIMKNHPNEASIFTKLLLKLPDLRSLNNMHSEELLAFKVHP
MHRKISCGINDIKSEFFEAERMNNSVTVEVTRGNLVESRHQGLAVVVDGDGGVLFSAGDIERGIFPRSACKAMQALPLVESGATDAYGFGNRELALACSSHSGEDAHAELAAAMLAKAGRDVDTLECGAHWSSDQKTIIHQARTLEKPTALHNNCSGKHSGFICACCHTGTDPKGYVGYDHPLQRQIRATMESLTGAALGHDNCGVDGCSIPTYAVPLKGLAHGFAKMATGRGLEAERAKASRRLIEACMAEPFYVAGTGRACTKLMQIAPGKIFAKTGAEGVFIAALPNQGIAMAVKCEDGTTRAAEAMVTALLARYFDDGSAEQQALKGMANRQMRNWNGIHVGDISVIGLAAALEHHHHHH

Soluble on expression in E. coli, not soluble:
NIPEIENANLKPALKDSVLPDGFYSTTNHPTHVKVNDEWIEVANPKMDAVIVVYPEEKRAETKVIRKVKKGDFVLIGHNGIRVMPPEKSREAGQLFEFMNSEVSSEKPKEAIIKRIAKEMHEIREEYKKTGTGGIAIVGGPAIIHTGGGPALAKMVELGYIQAILAGNALATHDIESALYGTSLGVNIKTAKPVTGGHKHHIYAINAINDAGNIKNAVESGVLKEGIMYQCIKNNIPYVLAGSIRDDGPIPDVITDSMVAQDKMRTTVMDKKMVIMLSTLLHSVATGNLMPSYIKTVCVDIQPSTVTKLMDRGTSQAIGVVTDVGVFLVLLLKELER
GERLSEAEVLSLFDLPLPELAAAAHEVRLKKTDPEVVTFLIDRNINYTNVCTVACAFCAFYRTKRQKDAYTLSYEEIARKVEELYQVGGRRILMQGGVNPELPLVWYLDLLRYLKSRFPDLRIDAFSPEEILGLERLTGLRAEAILEKLKEAGLDGLPGAGAEILVDEVRLKAAPARIRTADWYRIVDAAQALGLYTLATMVIGFGEGPKERTAHLLGLRAQQDRALERYENGFAAFALWTLQVEHTRLKGKAPGATAHEYLKTLAVARLALDNFAHFQASWPTLGFKVAQAALYYGADDFGSTMLEENVVSAAGGHGRTHATVRQIVRHIVDAGFKPAER
MHILDIWHRRNSRSYIAHLRSLGIRIGDGCIFRDPLTTRIDVSRPALVSIGSNVDMNTYFQILTHDWASFVFRNKYHDFVNSSGRVEIGSNIYIGTNVIVLRGVTIGDNCVIGAGSVVTHDIPANSVAVGAPCRVVCSLEHHHHHH
MAHHHHHHMSAPKEGNRGESKEKFWLYAFRDHLANLRAFSNCIETADVNGVGDYQLLVADGSKRIKVYAGTSLQRELPLFGVPSAITSFFMDDADAFGKPVVAVATGPYIFMYRSNKPLYRFMVPPVPLNPQESAIWQDLATEALTVEEAVKQLESLLDSGVETSSRTLELLLETPEERGEFVSRLRSVPLIQMDVVCCLTSIPLNSLDEGGRSVLVIGTEAGFLYVLKHNAAEVALKVVLPRTPVFLIAAGCFEVDYRMVVACRDGRVYSIKQGNLQNAVIQPDAQPCAIARYNNLIAVATTANTLAYYNLKGKKQQSVFLPCSISGLSTINDTVTGEARGLVVALSNGEIRVYVGTQLHHVSLAYGTVTAMKFGRYGRSDGALVLVLQNGSLVVELLHRGVNLSCSKTVETGPPPQQDIPIPIPHLSSVFATQSSRERKHGVEMYQLFQYDLSQLRLTTAKAYLDMIANGSVPSELGNVTQENEGVAEPSLRLNAVVQGLGPVFKVKVQLQNVGEAPLHAVRVVFCLSEDNVYCMPQQIFLIPTLLPSVPLSCAAFVTTSEGEAKGNAILVVATGPKSRTPLARTLVDLPEVEAMAEV
MCPRTSCRFYPFTIDFGTFRMAIIHAKSMTIPTSKLVAFSDKFLQNLRCFNCAVMDIVKNDATLPLGHLEEYTPGNRIGNWIGPVKGINIPSHLKADFRKSQPLSITRSVREAEWCTPFINCTQYYICINHLFAERIATKLRQVMGHTMISNCVSLLYLTGDFRRSSRFSGPIESANITSNLEEHCWHSIVLDFFDFICINSMRAIIEGKYQCFRRFITKYLMFAFFNWYRISFENSIIMQNHFTCVRTTQMRHVVIPLFTLNKDSSITIKRNRPSNFLIVVALNLICLEHHHHHH
MGSDKIHHHHHHMAAIPTYKLYGEKTEVSGEFLLHCETLFSRSSLYRFEIDLHRHENFLQILYISEGQGDATLDGKVIAITPPAAIVVPPLFSHGFRFSRSIKGMIITVLPAALPLAVRTSLKQALPLPLHMPLEGEPCAIEISLLMERIADEYAGAKPGRNGLLEAYLATVVLLLARQAAPDASQDLMTLTANDRRMEKLAALIAANFRSHKTAAFYAREMGLSPTHLNRLAKAGTGATLQQLIARKQLEIAQQELIFSQTSIQAIALNHGFTDPAYFTRFFTRETGLTPRAWRLAERQKLQNLSDRAQAEISAATASE
MDKRLLKRLSAPLLAAALWTIPLHSHADTQPLTSQDTKLLTSQIVDQYAEHIFYNSGAVGMALVVIDNNQVVNRSFGETQPGNNIRPRPDSLIRIASITKLMTSEIMVKLADDGIVKLTDPLKKYAPKGVNVPSYSAKQPIRLLHLASHTSGLPREQPGGPQKRPVFTWPTKDNRWQWLKLAKVTVPPGVKAAYSNLAYDLLADALSRAAGKPYAHLLRDKITAPLGMKNTTLTPTAEQCKRLMIGVGSSRCGNTVAAAGSGGIYSTPEDMQHWMQQFLASDNSAPKRSAKREQALYFQRGDLVSLKGMDVAGQADALGLGWVYMAPKADLPGIMQKTGGGGGFITYMAMVPEKNIGVFVVVTRSQLTKFSNMSDGVNQLVAELVKNH
METRKAEGEVIVVGAGLAGLVAAAELADAGRRVLILDQEGEQNLGGQAHWSFGGLFFVDSPEQRRLGIRDSLDLARRDWETAAGFDRPEDHWPRKWAEAYLEFAAGEKREWLHRQGMRWFPAVGWAERGGAGAGLPGNSVPRFHITWGTGPGVLEPFVRRVREHQRAGRIEFRFRHRVRGLTLTAGRVTGVHGDVLEPSDVGRGETSSRVVTGDFELTAQAVLITSGGIGGNHELVRRYWPTERLGPAPEVMLSGVPRHVDGLLQQQVVAQGGSLINPDRMWHYTEGVRNWDPVWPQHGIRILPGPSSLWLDPSGRRLPFPHIPGASSYDTLRHITTHGYPHTWFLLNRAVIKREFGLSGSEQNPDLTGKDLRLTLRRASKHVPGPVQAFMDRGEDFVVRDNLRDLVRGMNELTGGELLDYATVEREVLDRDLQVHNVAGKDAQLAIVRGARAILSERLTRVAKPAPLLDPAQGPLIAVRLSVLTRKSLGGLETDLQGRVIGAGGQPLPDLYAAGEVAGFGGGGYHGYRALEGTFLGGCLFSGRAAGRAIAGAL
PDKEYHTLHWIIMGALSCATRTVQIMTPYFIPDRSLVSALVTTALRGVEVTLVLPEKNNLPFVHWATRAYLWELIQQGIRVFYQPPPFAHTKLFIVDGLWSMIGSANLDPRSLRLNFELNLEVYDRELAGTLSRHFAVTVARSRQVSLTEMDGR
MAHHHHHHMLSASSSSSELETADDASVEHAALAYERVRREHALQRYLKAREAYEVACIARERRQLVVQSHNHTLRLLGQVVCDVKAVVDGTLKEGLSVRESTATAAEMLLASSCYKRAERGLVTLLAHEGRQHEVLRAATSPATETSRIPQVFSSGSRAEKPVASSPAKHMLRPLLLLCEWRLDYATLLCRQRLPLFSELARAQRVVSNSRESAREARGRMSAPTTPVVQRCQVQVAEARASLAKARAFQRSLKDRLHQLHQMLSRSAPVHAESGVFVDAGVAEEIQARLRQELAVGHVTLLRILCESLSGAFDERGRLTAL
MNVNIDSEQLFTEEKPKDYAQPEVLCHTFELLSNLHKLLPNRTVEVLHSYRSEEDKRKCEKPEFSGIEKILARHQLPKEINLSPKPSHVPSWKRKIINNISGNWKKCRLWQKSIYEPPMGTIIVRWTKKNLQPSEDLKSVIQRLSALGPIISVTPCGRESAVVVFRDAASACKAVSAFQTMSADSMFHCSWQHRFMSKNKTWSRRYPSKIHAEKKEKHP
